The record followed here is patent US20240148884A1.

Experiment in all cases: cell-based or functional assay
The target of assay [1] is mouse GLP1R (mouse) (UniProt O35659).
In assay [2] the target is dog GLP1R (dog).
Assay [3] deals with cynomolgous monkey GLP1R (cynomolgous monkey).
The target in assay [4] is T1, human GIPR (human) (UniProt P48546).
T1 sequence (looked up): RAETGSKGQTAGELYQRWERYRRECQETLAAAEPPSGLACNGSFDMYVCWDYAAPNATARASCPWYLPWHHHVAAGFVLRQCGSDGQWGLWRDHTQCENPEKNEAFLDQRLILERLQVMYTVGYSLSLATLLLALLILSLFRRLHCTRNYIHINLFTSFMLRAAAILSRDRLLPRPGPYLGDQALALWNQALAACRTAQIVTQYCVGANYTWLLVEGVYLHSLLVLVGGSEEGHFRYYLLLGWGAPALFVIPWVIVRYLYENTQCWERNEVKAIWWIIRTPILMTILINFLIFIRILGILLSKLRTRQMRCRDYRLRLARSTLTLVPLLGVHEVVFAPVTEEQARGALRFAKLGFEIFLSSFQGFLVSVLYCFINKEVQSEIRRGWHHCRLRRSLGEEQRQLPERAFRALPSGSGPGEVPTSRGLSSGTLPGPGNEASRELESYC

In assay [5] the target is cynomolgous monkey GIPR (cynomolgous monkey).
Assay [6] addresses dog GIPR (dog).
The target in assay [7] is T2, mouse GIPR (mouse) (UniProt Q0P543).
T2 sequence (looked up): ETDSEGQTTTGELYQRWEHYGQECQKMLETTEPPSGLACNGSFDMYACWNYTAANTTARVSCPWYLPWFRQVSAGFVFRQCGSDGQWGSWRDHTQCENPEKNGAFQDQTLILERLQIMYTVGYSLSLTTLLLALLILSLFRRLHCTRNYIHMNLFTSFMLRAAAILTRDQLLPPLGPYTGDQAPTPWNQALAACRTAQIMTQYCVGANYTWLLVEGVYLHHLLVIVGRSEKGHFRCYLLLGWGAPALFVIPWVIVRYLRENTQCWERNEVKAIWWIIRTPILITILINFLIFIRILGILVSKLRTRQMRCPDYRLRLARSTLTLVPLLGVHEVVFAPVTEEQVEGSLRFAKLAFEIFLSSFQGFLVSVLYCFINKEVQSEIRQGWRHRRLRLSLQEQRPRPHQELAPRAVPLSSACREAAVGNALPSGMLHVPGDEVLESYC

Sequence of mouse GLP1R (mouse) (O35659 22-463 limits assumed): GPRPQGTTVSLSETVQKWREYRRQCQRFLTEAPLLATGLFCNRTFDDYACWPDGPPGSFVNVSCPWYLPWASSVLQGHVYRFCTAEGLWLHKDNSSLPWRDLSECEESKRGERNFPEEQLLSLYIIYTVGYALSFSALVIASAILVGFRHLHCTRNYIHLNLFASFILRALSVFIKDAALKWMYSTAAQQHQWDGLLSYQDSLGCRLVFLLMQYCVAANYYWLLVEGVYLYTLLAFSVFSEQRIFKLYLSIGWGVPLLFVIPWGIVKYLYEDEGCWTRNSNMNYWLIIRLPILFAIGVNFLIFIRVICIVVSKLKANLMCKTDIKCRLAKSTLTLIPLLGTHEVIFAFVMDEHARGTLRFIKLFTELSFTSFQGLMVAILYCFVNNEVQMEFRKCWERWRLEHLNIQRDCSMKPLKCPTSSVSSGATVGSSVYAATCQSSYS
Sequence of dog GLP1R (dog) (chain, as listed by the source): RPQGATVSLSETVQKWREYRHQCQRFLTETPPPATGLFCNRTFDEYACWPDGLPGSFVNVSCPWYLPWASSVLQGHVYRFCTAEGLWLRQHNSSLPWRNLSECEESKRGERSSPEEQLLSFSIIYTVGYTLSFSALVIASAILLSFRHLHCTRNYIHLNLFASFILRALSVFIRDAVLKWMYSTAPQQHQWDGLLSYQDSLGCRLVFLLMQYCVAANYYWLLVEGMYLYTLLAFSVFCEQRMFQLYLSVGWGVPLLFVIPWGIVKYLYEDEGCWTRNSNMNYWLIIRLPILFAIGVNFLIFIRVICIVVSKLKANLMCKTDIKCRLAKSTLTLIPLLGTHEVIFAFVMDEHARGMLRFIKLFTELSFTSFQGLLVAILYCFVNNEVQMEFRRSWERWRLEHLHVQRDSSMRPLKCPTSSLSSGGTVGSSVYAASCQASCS

Turning to Semaglutide (peptide), the In Vitro Potency GLP1R EC50 [nM], Mouse in assay [1] is 0.1 nM. In addition, the In Vitro Potency GLP1R EC50 [nM], Dog in assay [2] came out at 0.67 nM. In assay [3], this substance returned an In Vitro Potency GLP1R EC50 [nM], Cyno of 0.13 nM.

For Tirzepatide (peptide), the In Vitro Potency GLP1R EC50 [nM], Mouse in assay [1] came out at 0.16 nM. Besides, in assay [4], the In Vitro Potency GIPR EC50 [nM], No Serum came to 0.006 nM. In addition, in assay [5], the In Vitro Potency GIPR EC50 [nM], Cyno is 0.08 nM. This substance also registered an In Vitro Potency GIPR EC50 [nM], Dog in assay [6] of 0.1 nM.

As to “wild-type human GIP (hGIP) (from UniProt P09681 52-93) (ligand)”, in assay [7], the In Vitro Potency GIPR EC50 [nM], Mouse was 0.34 nM. In assay [4], this substance yielded an In Vitro Potency GIPR EC50 [nM], 10% FBS of 0.01 nM and an In Vitro Potency GIPR EC50 [nM], No Serum of 0.05 nM. In assay [5], this substance showed an In Vitro Potency GIPR EC50 [nM], Cyno of 0.69 nM. In assay [6], this substance displayed an In Vitro Potency GIPR EC50 [nM], Dog of 0.7 nM.
